Measurements from PMC9482650, “Quantitative fragmentomics allow affinity mapping of interactomes” (Nature Communications, 2022).

T1: DVL3, Q92997
T1 sequence (Q92997 244-331, limits assumed, looked up): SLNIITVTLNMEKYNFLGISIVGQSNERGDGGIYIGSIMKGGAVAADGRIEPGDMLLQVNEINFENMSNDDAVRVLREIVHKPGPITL

T2: CARD11, Q9BXL7
T2 sequence (Q9BXL7 662-765, limits assumed, looked up): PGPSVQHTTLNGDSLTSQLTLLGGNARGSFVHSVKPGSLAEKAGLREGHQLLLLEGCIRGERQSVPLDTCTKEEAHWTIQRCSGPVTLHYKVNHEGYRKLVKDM

T3: PCLO, Q9Y6V0
T3 sequence (Q9Y6V0 4491-4600, limits assumed, looked up): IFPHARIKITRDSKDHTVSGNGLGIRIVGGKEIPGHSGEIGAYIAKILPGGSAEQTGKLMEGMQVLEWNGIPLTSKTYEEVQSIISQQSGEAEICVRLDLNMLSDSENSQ

T4: GRIP1_2, Q9Y3R0
T4 sequence (Q9Y3R0 145-248, limits assumed, looked up): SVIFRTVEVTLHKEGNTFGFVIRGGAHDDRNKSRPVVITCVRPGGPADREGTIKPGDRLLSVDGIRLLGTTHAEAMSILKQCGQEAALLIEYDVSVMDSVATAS

T5: SNTA1, Q13424
T5 sequence (Q13424 82-180, limits assumed, looked up): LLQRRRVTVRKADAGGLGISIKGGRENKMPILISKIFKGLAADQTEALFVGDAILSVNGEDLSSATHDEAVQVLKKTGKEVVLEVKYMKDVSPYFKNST

T6: MPP6, Q9NZW5
T6 sequence (Q9NZW5 125-219, limits assumed, looked up): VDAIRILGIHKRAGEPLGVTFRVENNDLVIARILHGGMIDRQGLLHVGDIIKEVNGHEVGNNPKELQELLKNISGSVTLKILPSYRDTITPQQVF

T7: TIAM2, Q8IVF5
T7 sequence (Q8IVF5 885-986, limits assumed, looked up): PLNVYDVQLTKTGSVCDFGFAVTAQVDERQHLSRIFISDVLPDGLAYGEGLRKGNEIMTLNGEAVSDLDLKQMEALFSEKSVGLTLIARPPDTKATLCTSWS

T8: TJP3_3, O95049
T8 sequence (O95049 375-456, limits assumed, looked up): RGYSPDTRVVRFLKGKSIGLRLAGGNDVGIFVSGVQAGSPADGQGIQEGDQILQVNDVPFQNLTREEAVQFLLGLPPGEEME

T9: FRMPD1, Q5SYB0
T9 sequence (Q5SYB0 52-145, limits assumed, looked up): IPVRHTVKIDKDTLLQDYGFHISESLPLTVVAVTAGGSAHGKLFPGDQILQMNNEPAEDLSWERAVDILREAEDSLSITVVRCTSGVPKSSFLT

T10: ARHGEF11, O15085
T10 sequence (O15085 42-136, limits assumed, looked up): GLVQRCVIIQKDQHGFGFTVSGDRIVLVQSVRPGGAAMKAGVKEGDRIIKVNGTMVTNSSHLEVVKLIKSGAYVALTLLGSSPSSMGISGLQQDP

T11: NHERF3_1, Q5T2W1
T11 sequence (Q5T2W1 4-100, limits assumed, looked up): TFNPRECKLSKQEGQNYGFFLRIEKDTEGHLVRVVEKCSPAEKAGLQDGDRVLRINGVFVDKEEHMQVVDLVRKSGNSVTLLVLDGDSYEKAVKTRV

T12: APBA2_1, Q99767
T12 sequence (Q99767 563-664, limits assumed, looked up): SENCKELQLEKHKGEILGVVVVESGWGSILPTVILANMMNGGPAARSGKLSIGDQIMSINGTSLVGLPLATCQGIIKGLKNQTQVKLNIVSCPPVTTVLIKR

T13: APBA3_1, O96018
T13 sequence (O96018 389-490, limits assumed, looked up): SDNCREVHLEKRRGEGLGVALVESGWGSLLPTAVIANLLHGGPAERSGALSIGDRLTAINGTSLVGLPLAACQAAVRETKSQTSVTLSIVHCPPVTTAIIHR

B1: TNRC6A, Q8NDV7 (peptide)
chain: DHLGGGGESM
B2: PLCB1, Q9NQ66 (peptide)
chain: IPGKEFDTPL

target: NHERF4_2, Q86UT5; experiment: holdup assay; parameters: key: below the threshold = too weak to quantify, mostly under pKd 3.1 to 4; conditions: plain residues with an end cap or a label only (N-terminal biotin on a linker: ado-ado)
Sequence (Q86UT5 220-308): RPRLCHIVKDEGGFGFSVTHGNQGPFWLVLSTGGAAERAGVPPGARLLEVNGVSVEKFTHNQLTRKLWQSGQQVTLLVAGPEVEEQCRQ

Row | Binder | pKd
1 | B1 | below the threshold
2 | B2 | below the threshold

target: GRIP2_3, Q9C0E4; experiment: holdup assay; parameters: key: below the threshold = too weak to quantify, mostly under pKd 3.1 to 4; conditions: plain residues with an end cap or a label only (N-terminal biotin on a linker: ado-ado)
Sequence (Q9C0E4 238-339): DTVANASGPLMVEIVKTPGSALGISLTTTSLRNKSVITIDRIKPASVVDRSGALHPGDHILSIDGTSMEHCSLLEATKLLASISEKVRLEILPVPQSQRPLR

Row | Binder | pKd
3 | B1 | below the threshold
4 | B2 | below the threshold

target: T1, DVL3, Q92997; experiment: holdup assay; parameters: key: below the threshold = too weak to quantify, mostly under pKd 3.1 to 4; conditions: plain residues with an end cap or a label only (N-terminal biotin on a linker: ado-ado)

Row | Binder | pKd
5 | B1 | below the threshold
6 | B2 | below the threshold

target: GRIP2_6, Q9C0E4; experiment: holdup assay; parameters: key: below the threshold = too weak to quantify, mostly under pKd 3.1 to 4; conditions: plain residues with an end cap or a label only (N-terminal biotin on a linker: ado-ado)
Sequence (Q9C0E4 648-740): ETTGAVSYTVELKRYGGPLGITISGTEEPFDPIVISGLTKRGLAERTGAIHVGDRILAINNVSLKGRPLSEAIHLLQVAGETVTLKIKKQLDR

Row | Binder | pKd
7 | B1 | below the threshold
8 | B2 | below the threshold

target: T2, CARD11, Q9BXL7; experiment: holdup assay; parameters: key: below the threshold = too weak to quantify, mostly under pKd 3.1 to 4; conditions: plain residues with an end cap or a label only (N-terminal biotin on a linker: ado-ado)

Row | Binder | pKd
9 | B1 | below the threshold
10 | B2 | below the threshold

target: CASK, O14936; experiment: holdup assay; parameters: key: below the threshold = too weak to quantify, mostly under pKd 3.1 to 4; conditions: plain residues with an end cap or a label only (N-terminal biotin on a linker: ado-ado)
Sequence (O14936 487-570): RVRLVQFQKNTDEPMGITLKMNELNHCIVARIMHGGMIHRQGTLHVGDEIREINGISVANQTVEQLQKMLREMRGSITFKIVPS

Row | Binder | pKd
11 | B1 | below the threshold
12 | B2 | below the threshold

target: DLG5_1, Q8TDM6; experiment: holdup assay; parameters: key: below the threshold = too weak to quantify, mostly under pKd 3.1 to 4; conditions: plain residues with an end cap or a label only (N-terminal biotin on a linker: ado-ado)
Sequence (Q8TDM6 617-713): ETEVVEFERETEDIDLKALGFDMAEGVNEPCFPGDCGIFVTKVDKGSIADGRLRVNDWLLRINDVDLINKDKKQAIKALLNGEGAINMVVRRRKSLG

Row | Binder | pKd
13 | B1 | below the threshold
14 | B2 | below the threshold

target: T3, PCLO, Q9Y6V0; experiment: holdup assay; parameters: key: below the threshold = too weak to quantify, mostly under pKd 3.1 to 4; conditions: plain residues with an end cap or a label only (N-terminal biotin on a linker: ado-ado)

Row | Binder | pKd
15 | B1 | below the threshold
16 | B2 | below the threshold

target: T4, GRIP1_2, Q9Y3R0; experiment: holdup assay; parameters: key: below the threshold = too weak to quantify, mostly under pKd 3.1 to 4; conditions: plain residues with an end cap or a label only (N-terminal biotin on a linker: ado-ado)

Row | Binder | pKd
17 | B1 | below the threshold
18 | B2 | below the threshold

target: T5, SNTA1, Q13424; experiment: holdup assay; parameters: key: below the threshold = too weak to quantify, mostly under pKd 3.1 to 4; conditions: plain residues with an end cap or a label only (N-terminal biotin on a linker: ado-ado)

Row | Binder | pKd
19 | B1 | below the threshold
20 | B2 | 3.51

target: T6, MPP6, Q9NZW5; experiment: holdup assay; parameters: key: below the threshold = too weak to quantify, mostly under pKd 3.1 to 4; conditions: plain residues with an end cap or a label only (N-terminal biotin on a linker: ado-ado)

Row | Binder | pKd
21 | B1 | 3.69
22 | B2 | 3.59

target: IL16_1, Q14005; experiment: holdup assay; parameters: key: below the threshold = too weak to quantify, mostly under pKd 3.1 to 4; conditions: plain residues with an end cap or a label only (N-terminal biotin on a linker: ado-ado)
Sequence (Q14005 210-306): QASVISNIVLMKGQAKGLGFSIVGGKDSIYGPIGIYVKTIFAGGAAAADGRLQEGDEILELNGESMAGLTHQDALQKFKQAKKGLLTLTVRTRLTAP

Row | Binder | pKd
23 | B1 | below the threshold
24 | B2 | below the threshold

target: MAGI2_6, Q86UL8; experiment: holdup assay; parameters: key: below the threshold = too weak to quantify, mostly under pKd 3.1 to 4; conditions: plain residues with an end cap or a label only (N-terminal biotin on a linker: ado-ado)
Sequence (Q86UL8 1141-1229): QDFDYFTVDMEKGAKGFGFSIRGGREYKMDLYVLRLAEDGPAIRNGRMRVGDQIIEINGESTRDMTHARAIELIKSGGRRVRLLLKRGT

Row | Binder | pKd
25 | B1 | below the threshold
26 | B2 | 3.49

target: T7, TIAM2, Q8IVF5; experiment: holdup assay; parameters: key: below the threshold = too weak to quantify, mostly under pKd 3.1 to 4; conditions: plain residues with an end cap or a label only (N-terminal biotin on a linker: ado-ado)

Row | Binder | pKd
27 | B1 | below the threshold
28 | B2 | below the threshold

target: ARHGEF12, Q9NZN5-2; experiment: holdup assay; parameters: key: below the threshold = too weak to quantify, mostly under pKd 3.1 to 4; conditions: plain residues with an end cap or a label only (N-terminal biotin on a linker: ado-ado)
Sequence (Q9NZN5 other isoform, or with tags, fused parts or gaps): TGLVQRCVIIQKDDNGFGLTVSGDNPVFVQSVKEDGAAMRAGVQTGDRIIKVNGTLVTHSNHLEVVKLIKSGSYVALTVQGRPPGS

Row | Binder | pKd
29 | B1 | below the threshold
30 | B2 | 3.61

target: NOS1, P29475; experiment: holdup assay; parameters: key: below the threshold = too weak to quantify, mostly under pKd 3.1 to 4; conditions: plain residues with an end cap or a label only (N-terminal biotin on a linker: ado-ado)
Sequence (P29475 9-101): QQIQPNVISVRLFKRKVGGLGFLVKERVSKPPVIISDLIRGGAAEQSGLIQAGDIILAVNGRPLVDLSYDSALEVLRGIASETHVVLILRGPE

Row | Binder | pKd
31 | B1 | below the threshold
32 | B2 | below the threshold

target: T8, TJP3_3, O95049; experiment: holdup assay; parameters: key: below the threshold = too weak to quantify, mostly under pKd 3.1 to 4; conditions: plain residues with an end cap or a label only (N-terminal biotin on a linker: ado-ado)

Row | Binder | pKd
33 | B1 | below the threshold
34 | B2 | below the threshold

target: HTRA2, O43464; experiment: holdup assay; parameters: key: below the threshold = too weak to quantify, mostly under pKd 3.1 to 4; conditions: plain residues with an end cap or a label only (N-terminal biotin on a linker: ado-ado)
Sequence (O43464 355-458): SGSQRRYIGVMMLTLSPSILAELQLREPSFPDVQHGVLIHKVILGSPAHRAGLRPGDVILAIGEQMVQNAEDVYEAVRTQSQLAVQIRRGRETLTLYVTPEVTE

Row | Binder | pKd
35 | B1 | below the threshold
36 | B2 | below the threshold

target: Inadl_6, Q8NI35; experiment: holdup assay; parameters: key: below the threshold = too weak to quantify, mostly under pKd 3.1 to 4; conditions: plain residues with an end cap or a label only (N-terminal biotin on a linker: ado-ado)
Sequence (Q8NI35 1058-1167): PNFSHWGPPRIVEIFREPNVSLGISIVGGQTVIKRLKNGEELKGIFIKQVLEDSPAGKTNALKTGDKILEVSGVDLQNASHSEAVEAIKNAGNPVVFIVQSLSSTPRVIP

Row | Binder | pKd
37 | B1 | below the threshold
38 | B2 | below the threshold

target: T9, FRMPD1, Q5SYB0; experiment: holdup assay; parameters: key: below the threshold = too weak to quantify, mostly under pKd 3.1 to 4; conditions: plain residues with an end cap or a label only (N-terminal biotin on a linker: ado-ado)

Row | Binder | pKd
39 | B1 | below the threshold
40 | B2 | below the threshold

target: T10, ARHGEF11, O15085; experiment: holdup assay; parameters: key: below the threshold = too weak to quantify, mostly under pKd 3.1 to 4; conditions: plain residues with an end cap or a label only (N-terminal biotin on a linker: ado-ado)

Row | Binder | pKd
41 | B1 | below the threshold
42 | B2 | below the threshold

target: T11, NHERF3_1, Q5T2W1; experiment: holdup assay; parameters: key: below the threshold = too weak to quantify, mostly under pKd 3.1 to 4; conditions: plain residues with an end cap or a label only (N-terminal biotin on a linker: ado-ado)

Row | Binder | pKd
43 | B1 | below the threshold
44 | B2 | 5.12

target: PICK1, Q9NRD5; experiment: holdup assay; parameters: key: below the threshold = too weak to quantify, mostly under pKd 3.1 to 4; conditions: plain residues with an end cap or a label only (N-terminal biotin on a linker: ado-ado)
Sequence (Q9NRD5 17-115): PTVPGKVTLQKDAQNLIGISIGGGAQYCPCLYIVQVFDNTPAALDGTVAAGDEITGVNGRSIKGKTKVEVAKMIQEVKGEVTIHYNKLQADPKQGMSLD

Row | Binder | pKd
45 | B1 | below the threshold
46 | B2 | below the threshold

target: T12, APBA2_1, Q99767; experiment: holdup assay; parameters: key: below the threshold = too weak to quantify, mostly under pKd 3.1 to 4; conditions: plain residues with an end cap or a label only (N-terminal biotin on a linker: ado-ado)

Row | Binder | pKd
47 | B1 | below the threshold
48 | B2 | below the threshold

target: T13, APBA3_1, O96018; experiment: holdup assay; parameters: key: below the threshold = too weak to quantify, mostly under pKd 3.1 to 4; conditions: plain residues with an end cap or a label only (N-terminal biotin on a linker: ado-ado)

Row | Binder | pKd
49 | B1 | below the threshold
50 | B2 | below the threshold
